Data set [1] has as its system MS2 coat protein. Nature of the data set: apparent KD of MS2 coat protein, switch ON state; designed switch direction (-1 OFF switch, 1 ON switch): -1; higher = weaker reporter binding. The settings on record: FMN input: 0 or 200 uM; Eterna round: R93 (includes R88 designs). In outline: (§1)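 On-chip transcription from Illumina sequencing clusters produced the designed RNA switches. These were titrated with SNAP-549-labelled MS2 coat protein (twofold steps, 0.7 or 1.5 nM to 3 µM) in 100 mM Tris-HCl pH 7.5, 80 mM KCl, 4 mM MgCl2, with or without constant ligand. The apparent KD given is the per-design median of normalised cluster binding-curve fits.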

Data set [2] concerns MS2 coat protein. Nature of the data set: apparent KD of MS2 coat protein, switch OFF state (with FMN for OFF switches, without FMN for ON switches); designed switch direction (-1 OFF switch, 1 ON switch): -1; higher = weaker reporter binding. The settings on record: FMN input: 0 or 200 uM; Eterna round: R93 (includes R88 designs). A digest of the protocol: as §1
Data set [3] deals with MS2 coat protein. Nature of the data set: apparent KD of MS2 coat protein; designed switch direction (-1 OFF switch, 1 ON switch): 1; higher = weaker reporter binding. A digest of the protocol: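 Designed RNA switches with common flanks were made on Illumina chips by stalled E. coli RNA polymerase. Titration with SNAP-549-labelled MS2 coat protein doubled from 0.7 or 1.5 nM up to 3 µM. Apparent KD is each design's median over clusters after curve-fitting normalised fluorescence.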

The mark [4] stands for this setting: input ligand: microRNA oligo, concentration not stated.
[5] abbreviates: Eterna round: R95, input ligand: FMN 200 uM.
The mark [6] stands for this setting: Eterna round: R95, input ligand: microRNA oligo, concentration not stated.
The mark [7] stands for this setting: Eterna round: R95, input ligand: none.

For the sequence “AAAAAACAUGAGGAUCACCCAUGUAAGGAUAUGCAAAAAAAAAAAAUAAAAAAAAAAAGCAGAAGGUACAUAGA [Starry Exclusion 1.7 (wbt round 1 mod)]”, the “apparent KD of MS2 coat protein” value in data set [1] amounted to 36.6 nM; in data set [2], 40.6 nM.
Taken in the same sequence, the figures for “AAAAAACAUGAGGAUCACCCAUGUAAGGAUAUGCUAAAAAACGCAAAAAAAGCGAAUAGCAGAAGGUACAAAAA [66%, Wbt, 29]” were 19.4 nM and 35.9 nM.
Taken in the same sequence, the figures for “AAAAAACAUGAGGAUCACCCAUGUAAGGAUAUGCUGAAAAACACGGAAAAACGUGACAGCAGAAGGUACAAAAG [Mat - Exclusion 1 - Eli mod - D93]” were 11.8 nM and 84 nM.
On the same counts, the results for “AAAAAACAUGAGGAUCACCCAUGUCAGGAUAUCCGAAAAAAAAAAAAAAAAAAACCUUGGAGAAGGGACAUUCC [Chica Displaced 6 - Jieux - Exclusion 1]” are 37.2 nM and 34.4 nM.
For the sequence “AAAAAACAUGAGGAUCACCCAUGUCAGGAUAUCUGUAUUCAAUCCUCGGAUUGAAUACAGAGAAGGGACAUGAA [Ex1: 603]”, the figures for the “apparent KD of MS2 coat protein” value in data set [1] and in data set [2] were 41.3 nM and 110 nM, respectively.
For the sequence “AAAAAACAUGAGGAUCACCCAUGUGAGGAUAUACAAAACCCAUAUAAAAAGGGAAAAAGUAGAAGGCACAAAAA [wbt round 1 mod 11]”, the figures for the “apparent KD of MS2 coat protein” value in data set [1] and in data set [2] were 27.5 nM and 33.9 nM, respectively.
Turning to “AAAAAACAUGAGGAUCACCCAUGUGAGGAUAUCUGUAUCCAAAAGGAAGUGUAGGAUCAGAGAAGGCACUAGGA [Power strip]”, the “apparent KD of MS2 coat protein” value came to 40.1 nM in data set [1] and 83.8 nM in data set [2].
For the sequence “AAAAAACAUGAGGAUCACCCAUGUGAGGAUAUGAUGCGAAUAAAGAAAGAAUAAAGCAUCAGAAGGCACAAAAA [Mat - Exclusion 1 - Eli mod - D62]”, the results for the “apparent KD of MS2 coat protein” value in data set [1] and in data set [2] were 36.4 nM and 49.6 nM, respectively.
For the sequence “AAAAAACAUGAGGAUCACCCAUGUGAGGAUAUGCAAUAAAAAAUAAAAAUAAAACAUAGCAGAAGGCACACCAA [Amethyst 58]”, the “apparent KD of MS2 coat protein” value in data set [1] turned out to be 26.6 nM; in data set [2] it was 31.8 nM.
Consider “AAAAAACAUGAGGAUCACCCAUGUUAGGAUAUUCCUAAAAAAAAAAAAAAAAAAAAUGGAAGAAGGAACAAAAA [excalibur10]”, for which the “apparent KD of MS2 coat protein” value was 23.5 nM in data set [1] and 30.2 nM in data set [2].
Turning to “AAAAAAGCAGGAUAUACGAACAUGUCGAAAGACGUGAAGGGACAUGAGGAUCACCCAUGUAGAAGGGUUAAGAA [Mat - Exclusion 2 - JL mod - D75]”, the “apparent KD of MS2 coat protein” value in data set [1] was 166 nM; in data set [2] it was 55 nM.
Taken in the same sequence, the figures for “AAAAAAGGAGGAUAUACAUGAGGAUCACCCAUGUAAAAAGGGAAAAAAAAAAAAAAAAGUAGAAGGCCUAAAAA [JR_Exc003_Sub1701]” were 41.7 nM and 65.1 nM.
On the same counts, the results for “AAAAAAUAAGGAUAUACAUUUCGGGAAAUUUUUACAAAAAAACAUGAGGAUCACCCAUGUAGAAGGUAUAAAAA [Exclusion 2]” are 18.6 nM and 17.7 nM.
Consider “AAAAACCAAGGAUAUACAUGAGGAUCACCCAUGUAAAAAAAAAAAAAGGGAAAAAAAAGUAGAAGGUGGAAAAA [Sekhemre Shedtawy Sobekemsaf II]”, for which the “apparent KD of MS2 coat protein” value in data set [1] turned out to be 20.9 nM; in data set [2] it was 38.6 nM.
Consider “AAAAACCUAGGAUAUACAUGAGGAUCACCCAUGUAAAAAAAAAAAAAGGGAAAAAAAAGUAGAAGGAGGAAAAA [Sekhemre Wadjkhaw Sobekemsaf I]”, for which the “apparent KD of MS2 coat protein” value stood at 20.6 nM in data set [1] and 24.9 nM in data set [2].
On the same counts, the results for “AAAAACGGAGGAUAUACAUGAGGAUCACCCAUGUAAAAAAAAAAAAAGGGAAAAAAAAGUAGAAGGCCGAAAAA [Sekhemrekhutawy Pantjeny]” are 39.1 nM and 71.2 nM.
With “AAAAAGAGAGGAUAUACAUGAGGAUCACCCAUGUGAAAGACGAAAAAAAGUCAAAAAAGUAGAAGGCUCAAAAA [65%, Moding Exclusion3-cac2, 15]”, the “apparent KD of MS2 coat protein” value in data set [1] was 23.8 nM; in data set [2], 25.4 nM.
Taken in the same sequence, the figures for “AAAAAGAGAGGAUAUACAUGAGGAUCACCCAUGUGACACAAAAUAAAUAAAAUAAAGUGUAGAAGGCUCAAAAA [65%, Moding Exclusion3-cac2, 20]” were 23.8 nM and 78.2 nM.
Taken in the same sequence, the figures for “AAAAAGAGAGGAUAUACAUGAGGAUCACCCAUGUGACAUAAAAUAAAUAAAAUAAAGUGUAGAAGGCUCAAAAA [65%, Moding Exclusion3-cac2, 21]” were 41.7 nM and 104 nM.
Take “UUCUCCUUUUUUUACAUGAGGAUCACCCAUGUUUACCCUACGUAGGAUAUCGAUGAGUGUUUGUACGAGAAGGACGUAGUAAGU [JR_SSND3_Sub058] (Eterna round: R96, puzzle: Same State NG 3)”: the “apparent KD of MS2 coat protein” value in data set [3] (input ligand: FMN 200 uM) worked out at 37.4 nM; in data set [3] (setting [4]) it was 106 nM; in data set [3] (input ligand: none), 137 nM.
In the case of “UUGAAGAAUUAAGGAUAUUGAGUACAUAUGUAAAACAUGAGGAUCACCCAUGUGGGUUGCGGUAUCGAGAAGGUAAAUUACUAG [Mat - same State NG 2 - JL mod - D69] (Eterna round: R96, puzzle: Same State NG 2)”, the “apparent KD of MS2 coat protein” value came out at 69.9 nM in data set [3] (input ligand: FMN 200 uM), 66.2 nM in data set [3] (setting [4]) and 65.9 nM in data set [3] (input ligand: none).
Taken in the same sequence, the figures for “UUGAAUAAUUAAGGAUAUCGAGUACAUAUGUUAAACAUGAGGAUCACCCAUGUGGGUUGCGGUAUCGAGAAGGUAAAAGAAAAG [Mat - Same State NG 2 - JL mod - D60] (Eterna round: R96, puzzle: Same State NG 2)” were 32.6 nM, 21.9 nM and 35.8 nM.
Taken in the same sequence, the figures for “UUGCUCAUGUAAGGAUAUGCAGCCGUUUCGGCUGCAGAAGGUACUAUAAUACAUGAGGAUCACCCAUGUCUCUAUUAUUUAGUG [salish99_SSNG1_r04_924] (Eterna round: R96, puzzle: Same State NG 1)” were 78.6 nM, 43.8 nM and 59.8 nM.
Take “UUGCUCGUGUGAGGAUAUGCAGCCGUUUCGGCUGCAGAAGGUACUAUAAUACAUGAGGAUCACCCAUGUCUCUGUUGUUUAGUG [salish99_SSNG1_r04_928] (Eterna round: R96, puzzle: Same State NG 1)”: the “apparent KD of MS2 coat protein” value in data set [3] (input ligand: FMN 200 uM) is 34 nM; in data set [3] (setting [4]), 27.8 nM; in data set [3] (input ligand: none), 39.2 nM.
As for “UUGGUGUAGAUACAGGAUAUGUUGCUCGUAACAUGAGGAUCACCCAUGUAUCUAUGAGAUUAAAUGCAGAAGGGUGCACAUCACU [salish99_ss2_r3_088] (puzzle: Same State 2)”, the “apparent KD of MS2 coat protein” value worked out at 121 nM in data set [3] (setting [5]), 54.2 nM in data set [3] (setting [6]) and 329 nM in data set [3] (setting [7]).
“UUGUUUCGUCAUUAACAUGAGGAUCACCCAUGUAUUGACCCAGAGGAUAUGCAUGUUUGAUUGUAGCAGAAGGCUGAUUGUUGU [JR_SSNG3_Sub032] (Eterna round: R96, puzzle: Same State NG 3)”: the “apparent KD of MS2 coat protein” value worked out at 13.7 nM in data set [3] (input ligand: FMN 200 uM), 27 nM in data set [3] (setting [4]) and 26.3 nM in data set [3] (input ligand: none).
Consider “UUUAGGAACGGGCAGGAUAUGUAUUAAAAUACAUGAGGAUCACCCAUGUGCGGGUAUAACACCCGACAGAAGGGCCAAUCGUUCC [Laonerce - 9] (puzzle: Same State 2)”, for which the “apparent KD of MS2 coat protein” value in data set [3] (setting [5]) amounted to 22.7 nM; in data set [3] (setting [6]), 170 nM; in data set [3] (setting [7]), 231 nM.
Taken in the same sequence, the figures for “UUUAGUUGCGGGCAGGAUAUGUAUUAAAAUACAUGAGGAUCACCCAUGUGCGGGUAUAACACCCGGCAGAAGGGCCAAUCGCGAC [Laonerce - 3] (puzzle: Same State 2)” were 34.2 nM, 191 nM and 296 nM.
With “UUUAUAUUCAGAGGAUAUUAAUGUUGUAUAAUAUAAGAAGGCUGUUUGUUUUGUAAAGUUAUUAUACAUGAGGAUCACCCAUGU [JR_SSNG1_Sub082] (Eterna round: R96, puzzle: Same State NG 1)”, the “apparent KD of MS2 coat protein” value in data set [3] (setting [4]) turned out to be 15.5 nM.
Same read-out and setting: with “UUUAUAUUCAGAGGAUAUUGAUGUUGUAUUUUACAAGAAGGCUGUUUGUUUUGUAAUGUUAUUAUACAUGAGGAUCACCCAUGU [JR_SSNG1_Sub015] (Eterna round: R96, puzzle: Same State NG 1)” the figure was 16.8 nM.
Turning to “UUUGGGUGGCUGGAGGAUAUUCUAGUGGUUACAUGAGGAUCACCCAUGUGUCGCGCGGUACGCGAGGAGAAGGCUGGCGGCCGUU (puzzle: Same State 2)”, the “apparent KD of MS2 coat protein” value in data set [3] (setting [6]) worked out at 83.5 nM.
Still for that read-out and setting: with “UUUGGGUGGCUGGAGGAUAUUCUUGUGGUUACAUGAGGAUCACCCAUGUGUCGCGCGGUGCGCGAGGAGAAGGCUGGCGGCCGUU (puzzle: Same State 2)” the figure was 186 nM.

For the origin of these results see the supplement of paper PMC9170038.
